Data set [1] has as its target T1, Ku protein (Ku70/Ku80 heterodimer) (Homo sapiens, UniProt P12956;P13010 P12956:2-609,P13010:2-732). In words: EMSA; binding comparable to round 6 RNA (about 0.3 nM). The conditions noted are these: tags: none, purified from HeLa cell nuclear extracts; label: 5'-32P.
Text: Binding curves were obtained with EMSA followed by a nonlinear least squares fit of the data. […] A twenty-one base pair double-stranded DNA was end-labeled with T4 polynucleotide kinase.
For data set [2], the target named is T1, Ku protein (Ku70/Ku80 heterodimer). In words: EMSA. The conditions noted are these: tags: none, purified from HeLa cell nuclear extracts.
Data set [3] shares this target. In words: EMSA; printed as SCI. The conditions noted are these: tags: none, purified from HeLa cell nuclear extracts.
Data set [4] has as its target DNA-PK (Ku protein + DNA-PKcs) (Homo sapiens, UniProt P12956;P13010;P78527 P12956:2-609,P13010:2-732,P78527:1-4128). The data set can be described thus: inhibition; DNA-PK kinase inhibition class A at 16-32 nM RNA. The conditions noted are these: tags: none, both purified from HeLa cell nuclear extracts.
The target of data set [5] is T1, Ku protein (Ku70/Ku80 heterodimer). The data set can be described thus: EMSA; 5 mM MgCl2. The conditions noted are these: tags: none, purified from HeLa cell nuclear extracts.

Data on 20 molecules can be found in US6441158, “Oligomers that bind to ku protein” (Medical College of Georgia Research Institute, Inc.).

T1 sequence (P12956 2-609, chain 1 of 2): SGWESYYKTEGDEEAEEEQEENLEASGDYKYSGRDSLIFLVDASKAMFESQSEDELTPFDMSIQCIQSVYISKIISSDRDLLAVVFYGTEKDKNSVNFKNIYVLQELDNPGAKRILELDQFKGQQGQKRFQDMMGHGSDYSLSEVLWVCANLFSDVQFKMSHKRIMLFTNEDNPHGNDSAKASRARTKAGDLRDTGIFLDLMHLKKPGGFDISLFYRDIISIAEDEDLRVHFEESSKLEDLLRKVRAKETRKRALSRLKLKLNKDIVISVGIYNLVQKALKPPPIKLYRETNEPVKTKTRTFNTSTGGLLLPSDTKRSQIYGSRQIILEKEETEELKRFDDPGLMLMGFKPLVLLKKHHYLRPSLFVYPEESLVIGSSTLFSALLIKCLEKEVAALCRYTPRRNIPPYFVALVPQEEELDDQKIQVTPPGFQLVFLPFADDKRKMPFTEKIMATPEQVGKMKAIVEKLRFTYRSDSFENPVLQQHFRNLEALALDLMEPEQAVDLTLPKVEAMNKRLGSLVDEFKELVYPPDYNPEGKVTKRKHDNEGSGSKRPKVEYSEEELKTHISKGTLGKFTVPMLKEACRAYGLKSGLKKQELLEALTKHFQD
T1 sequence (P13010 2-732, chain 2 of 2): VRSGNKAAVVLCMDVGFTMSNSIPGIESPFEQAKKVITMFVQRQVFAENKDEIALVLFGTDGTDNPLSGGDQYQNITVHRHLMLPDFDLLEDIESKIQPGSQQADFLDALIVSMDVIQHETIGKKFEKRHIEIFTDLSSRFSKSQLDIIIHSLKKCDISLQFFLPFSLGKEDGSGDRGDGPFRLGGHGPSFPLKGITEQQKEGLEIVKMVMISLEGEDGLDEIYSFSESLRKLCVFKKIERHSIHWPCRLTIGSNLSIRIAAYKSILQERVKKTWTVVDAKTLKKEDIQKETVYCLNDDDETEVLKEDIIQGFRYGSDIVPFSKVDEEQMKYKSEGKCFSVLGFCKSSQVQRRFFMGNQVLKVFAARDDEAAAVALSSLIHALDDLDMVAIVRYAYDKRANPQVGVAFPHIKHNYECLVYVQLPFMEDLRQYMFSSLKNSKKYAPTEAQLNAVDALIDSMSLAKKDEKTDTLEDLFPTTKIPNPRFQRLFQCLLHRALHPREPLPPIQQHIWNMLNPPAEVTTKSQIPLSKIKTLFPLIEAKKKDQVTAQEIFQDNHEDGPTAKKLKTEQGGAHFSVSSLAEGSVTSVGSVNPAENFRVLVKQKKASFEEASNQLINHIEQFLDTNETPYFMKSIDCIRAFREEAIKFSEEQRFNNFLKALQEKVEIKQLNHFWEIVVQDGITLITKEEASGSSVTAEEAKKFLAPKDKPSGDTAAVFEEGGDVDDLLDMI

B1: 21 bp double-stranded DNA (dsDNA)
DNA 1: CTCAGGCGTTGACGACAACCC
DNA 2: GGGTTGTCGTCAACGCCTGAG
For the molecule B1, the binding result in data set [1] is given as “binds”.

B2: SC3 (ssRNA)
RNA: GGGAGGAUAUUUUCUCAGACCGUAACAUUACCACAGUUCUAGCAUCCCGCAAUGGUAAGUCCGCAUUGCAGCAUCGUGAACUAGGAUC
Turning to B2, the Kd in data set [2] is 0.8 nM. This counts as sub-nanomolar.

B3: SC1 (ssRNA)
RNA: GGGAGGAUAUUUUCUCAGACCGUAAUUGUUCAACCUUGUCUAACAUGAUACCGAUACGGACUACAUUGCAGCAUCGUGAACUAGGAUC
On to B3, for which the Kd in data set [3] stood at 1.2 nM.

B4: SC13 (ssRNA)
RNA: GGGAGGAUAUUUUCUCAGACCGUAAACCUUUUUAGACGAACCUCAAAGUACAUUUAGUUGAAAACUUGCAGCAUCGUGAACUAGGAUC
For the molecule B4, the Kd in data set [2] amounted to 0.8 nM.

B5: #1-17 (ssRNA)
RNA: GGGAGGAUAUUUUCUCAGACCGUAAUCCUUAUUUUAUGGCUUUCCCACGCACACAAGCGUCUGCGUUGCAGCAUCGUGAACUAGGAUC
Turning to B5, the Kd in data set [2] came to 3.2 nM.

B6: #52 (ssRNA)
RNA: GGGAGGAUAUUUUCUCAGACCGUAACUGAUCGUUCAAUGACUAUUCUUUACCUUGAGUAACCGAUUGCAGCAUCGUGAACUAGGAUC
As to B6, in data set [2], the Kd stood at 3.2 nM.

B7: SC5 (ssRNA)
RNA: GGGAGGAUAUUUUCUCAGACCGUAACUUGAACAUGAUAGGCUUACCCAUAGACAGAUUGACCCUUUUGCAGCAUCGUGAACUAGGAUC
Consider B7, for which the activity in data set [4] was at least 85 % inhibition. Further, binding in data set [2] was characterised by a dissociation constant (Kd) of 2 nM.

B8: #85 (ssRNA)
RNA: GGGAGGAUAUUUUCUCAGACCGUAACAAGUAUCACGCACUUUCCCAUUCACUGUUAGAGACUGAUUGCAGCAUCGUGAACUAGGAUC
Turning to B8, the Kd in data set [2] amounted to 0.7 nM.

B9: SC6 (ssRNA)
RNA: GGGAGGAUAUUUUCUCAGACCGUAAGACUCACGAUGGACCAUACGCCUUCCCACUGGUCUUGUUAUUGCAGCAUCGUGAACUAGGAUC
The molecule B9 displayed a Kd in data set [2] of 2 nM.

B10: SC9 (ssRNA)
RNA: GGGAGGAUAUUUUCUCAGACCGUAAUGCCUUUAGCUGCGACAAUGAACAGCAUGACCUCACUACUUGCAGCAUCGUGAACUAGGAUC
For B10, the Kd in data set [2] worked out at 0.6 nM. This Kd is about 3.3-fold lower than that of the molecule before.

B11: #2 (ssRNA)
RNA: GGGAGGAUAUUUUCUCAGACCGUAAGCCUAUGCACGGAGCUUUCCCAGCUACAGAUGAAACCAGCUUGCAGCAUCGUGAACUAGGAUC
As to B11, in data set [4], the activity is at least 85 % inhibition. In addition, binding in data set [5] was characterised by a dissociation constant (Kd) of 0.3 nM.

B12: SC8 (ssRNA)
RNA: GGGAGGAUAUUUUCUCAGACCGUAAGUCCUUCACUAAUGCUUACCAGACACACUAAGAACGUCACUUGCAGCAUCGUGAACUAGGAUC
On to B12, for which the activity in data set [4] is at least 85 % inhibition. The molecule also had a Kd in data set [2] of 0.6 nM.

B13: SC4 (ssRNA)
RNA: GGGAGGAUAUUUUCUCAGACCGUAACCUAGUCUAAUCGAGGCUUUCCCAGUGACAAUGACCCACUUGCAGCAUCGUGAACUAGGAUC
For B13, the Kd in data set [2] is 1.7 nM.

B14: SC11 (ssRNA)
RNA: GGGAGGAUAUUUUCUCAGACCGUAACUUAGUUUCGAUCGAAGCUCAUUGGCCCAGCGUGGAUAACUUGCAGCAUCGUGAACUAGGAUC
In data set [2], B14 gave a Kd above 10 nM.

B15: #7-3 (ssRNA)
RNA: GGGAGGAUAUUUUCUCAGACCGUAAAGGUCGGCAUACAGAGUUCCGAAUGCGCGUAACUUCGACUUUGCAGCAUCGUGAACUAGGAUC
B15: the activity in data set [4] was at least 85 % inhibition. This molecule returned a Kd in data set [2] of 1.8 nM.

B16: #1-2 (ssRNA)
RNA: GGGAGGAUAUUUUCUCAGACCGUAACAACACCUUGCUUUCCCAAUACCCUGAAAUACAGUCGGAUUUGCAGCAUCGUGAACUAGGAUC
B16: the activity in data set [4] is at least 85 % inhibition. Besides, in data set [2], the affinity, expressed as Kd, was 1.5 nM.

B17: SC12 (ssRNA)
RNA: GGGAGGAUAUUUUCUCAGACCGUAACUCGCAACAUGACUUCGAAAGUUUAAUCGUUCUUGUCAAUUGCAGCAUCGUGAACUAGGAUC
B17 displayed a Kd in data set [2] of 0.5 nM. This counts as sub-nanomolar.

B18: SC2 (ssRNA)
RNA: GGGAGGAUAUUUUCUCAGACCGUAACACGCUCUACAACAGAUUGCGAAUUAACUUACGCUUCAUAUUGCAGCAUCGUGAACUAGGAUC
For B18, the activity in data set [4] is at least 85 % inhibition. The equilibrium dissociation constant (Kd) in data set [2] is 0.8 nM.

B19: #42 (ssRNA)
RNA: GGGAGGAUAUUUUCUCAGACCGUAACAUCCUGGUACUCACUUCGACAUCGUACGUUCAAUCAUACUUGCAGCAUCGUGAACUAGGAUC
Regarding B19, binding in data set [2] was characterised by a dissociation constant (Kd) of 4.5 nM. That is a single-digit nanomolar value.

B20: #84 (ssRNA)
RNA: GGGAGGAUAUUUUCUCAGACCGUAAAUCCGCGUACCGGGCUCAAAUGUCACUAUAGUAGAAAGCAUUGCAGCAUCGUGAACUAGGAUC
Consider B20, for which the Kd in data set [2] turned out to be 1.8 nM.
